Results on two molecules are retold here after US20020044944A1.

For one assay, the target named is human Fas ligand (human) (UniProt P48023). Put plainly: cell-based or functional assay.
The target of a further assay is mouse Fas ligand (mouse) (UniProt P41047). Put plainly: cell-based or functional assay.
Chain of UniProt P41047 (P41047 whole entry): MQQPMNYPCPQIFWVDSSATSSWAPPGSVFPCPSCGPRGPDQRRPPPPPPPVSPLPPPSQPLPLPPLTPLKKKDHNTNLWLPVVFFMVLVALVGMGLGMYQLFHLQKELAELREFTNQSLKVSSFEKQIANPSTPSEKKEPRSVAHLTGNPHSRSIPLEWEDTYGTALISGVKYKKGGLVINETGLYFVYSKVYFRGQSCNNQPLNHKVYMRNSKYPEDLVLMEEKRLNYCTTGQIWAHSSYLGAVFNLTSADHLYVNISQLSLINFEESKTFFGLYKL

Chain of UniProt P48023 (P48023 whole entry): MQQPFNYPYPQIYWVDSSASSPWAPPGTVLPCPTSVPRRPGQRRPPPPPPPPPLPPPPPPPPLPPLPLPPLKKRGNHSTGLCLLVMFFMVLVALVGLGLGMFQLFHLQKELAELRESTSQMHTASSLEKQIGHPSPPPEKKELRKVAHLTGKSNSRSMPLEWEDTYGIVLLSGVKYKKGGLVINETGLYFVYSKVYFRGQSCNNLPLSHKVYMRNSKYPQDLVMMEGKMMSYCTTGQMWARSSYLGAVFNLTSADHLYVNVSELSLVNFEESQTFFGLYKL

B1: shFas(nd29)-hinge (receptor)
chain: TQNLEGLHHDGQFCHKPCPPGERKARDCTVNGDEPDCVPCQEGKEYTDKAHFSSKCRRCRLCDEGHGLEVEINCTRTQNTKCRCKPNFFCNSTVCEHCDPCTKCEHGIIKECTLTSNTKCKEEGSRSNEPKSCDKTHTCPPCP
Regarding B1, in the assay with human Fas ligand (human), the specific cytotoxicity inhibition activity (51Cr release; 1A12 effector cells, WC8 target cells; FIG. 11) (times higher than hFas-Fc) is 3 to 10. In the assay with mouse Fas ligand (mouse), this molecule came in with a specific cytotoxicity inhibition activity (51Cr release; FLm14 effector cells, W4 target cells; FIG. 12) (times higher than hFas-Fc) of 3 to 10.

B2: shFas(nd29)-hinge, higher molecular weight gel filtration fraction (fractions 1 and 2, seemed to correspond to a dimer) (receptor)
chain: B1 chain
B2: in the assay with human Fas ligand (human) (scale: times stronger than the lower molecular weight fraction), the cytotoxicity inhibition activity by the assay described in Inventive Example 8 was > 50.
